Test results published in publication PMC3136511.

Target: Nup145N(443–605) (Saccharomyces cerevisiae) (UniProt P49687)
Test: SAXS

## Nup145N(443–605) (from UniProt P49687 443-605) (domain or fragment)
  dimer fraction: 98%
  stoichiometry N: 2
